Key:
CAML = target: T1, CAML (Homo sapiens, UniProt P49069); conditions: published reports on human TACI fragments; cited from earlier work
T1 sequence (P49069 1-296): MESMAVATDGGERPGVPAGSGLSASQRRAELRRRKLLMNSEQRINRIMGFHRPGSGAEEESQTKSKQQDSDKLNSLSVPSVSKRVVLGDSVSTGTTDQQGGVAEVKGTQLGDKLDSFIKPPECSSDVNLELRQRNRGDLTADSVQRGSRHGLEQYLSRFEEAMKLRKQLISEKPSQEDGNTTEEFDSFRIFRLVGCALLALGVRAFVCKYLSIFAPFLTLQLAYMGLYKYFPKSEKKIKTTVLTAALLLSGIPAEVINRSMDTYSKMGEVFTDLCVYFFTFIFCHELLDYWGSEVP

full length CAML [1] = target: T2, full length CAML (Homo sapiens, UniProt P49069); assay: Yeast two-hybrid interaction; type: binding
T2 construct: expressed in transfected cells; host or cells: Saccharomyces cerevisiae AH109
T2 sequence (P49069 1-296): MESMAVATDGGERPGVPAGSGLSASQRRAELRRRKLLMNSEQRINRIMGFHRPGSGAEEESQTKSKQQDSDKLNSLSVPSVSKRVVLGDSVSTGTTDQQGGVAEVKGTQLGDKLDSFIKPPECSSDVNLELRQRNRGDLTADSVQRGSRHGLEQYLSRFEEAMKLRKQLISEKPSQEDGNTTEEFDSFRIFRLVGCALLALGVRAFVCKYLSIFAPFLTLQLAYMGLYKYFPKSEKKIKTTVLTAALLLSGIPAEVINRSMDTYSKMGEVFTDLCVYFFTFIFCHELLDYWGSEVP
Excerpt: (§1) pBD-6.7, a bait vector containing E3/6.7, was constructed by subdloning full length E3/6.7K cDNA in frame into the C terminus of the GAL4 DNA binding domain of vector pGBKT7 (CLONTECH). pAD-CAML was constructed by subcloning full length CAML in frame into the C terminus of the GAL4 activation domain of the prey vector pGADT7 (CLONTECH). pAD-CAML(201) was constructed by subdloning amino acids 1 to 201 of CAML in frame into the C terminus of the GAl4 activation domain of the prey vector pGADT7. The fidelity of the constructs was confirmed by sequencing.
(§2) Yeast Transformation and Selection. p]3D-6.7 and pAD-CAML or pAD-CAML(201) were transformed together into Saccharomyces cerevisiae AH109 using the Lithium Acetate Yeast Transformation procedure as described by Gietz, D., et al. (1992) Nucleic Acids Res., 20:1425. Control cotransformation of p3D-53 /pAD-T and pBD-Lam/pAD-T were also done. pBD-53/pAD-T encode fusions between the GAL4 DNA-BD and AD and murine p53 and SV40 large T-antigen, respectively. p53 and large T-antigen interact in a yeast two-hybrid assay. pBD-Lam encodes a fusion of the DNA-BD with human lamin C and provides a negative control for an interaction with pAD-T. For yeast selection, pBD containing the […] gene was selected on synthetic drop out media lacking tryptophan (SD-T). pAD contains the LEU2 gene and was selected for on SD-L (leucine).
(§3) CAML-Binding with SED. The yeast two hybrid system takes advantage of the GAL4 transcriptional activator which consists of two separable and functionally essential domains: a DNA binding domain and a domain that activates transcription. A bait gene (fragments of the E3/6.7K gene) was expressed as a fusion to the GAL4 DNA-binding domain (ED), while a prey gene (CAML) was expressed as a fusion to the GAL4 activation domain (AD). When bait and prey fusion proteins interact, the BD and AD are brought into proximity, thus activating transcription of reporter genes.

full length CAML [2] = target: T3, full length CAML (Mus musculus, UniProt P49070); assay: Yeast two-hybrid interaction; type: binding; conditions: GAL4 bait/prey
T3 construct: expressed in transfected cells; host or cells: Saccharomyces cerevisiae AH109
T3 sequence (P49070 1-294): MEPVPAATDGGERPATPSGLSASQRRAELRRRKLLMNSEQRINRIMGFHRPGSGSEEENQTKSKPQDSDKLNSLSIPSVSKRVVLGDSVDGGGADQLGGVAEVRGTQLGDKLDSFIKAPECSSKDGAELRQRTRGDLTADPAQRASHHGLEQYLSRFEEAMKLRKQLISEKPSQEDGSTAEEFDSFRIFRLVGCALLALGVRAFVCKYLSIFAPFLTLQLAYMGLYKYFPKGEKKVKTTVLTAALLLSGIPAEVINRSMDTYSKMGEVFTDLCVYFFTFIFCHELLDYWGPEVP
Excerpt: as §1, §2, §3

[3] = target: T4, amino acids 1 to 201 of CAML (Homo sapiens, UniProt P49069); assay: Yeast two-hybrid interaction; type: binding
T4 construct: subdloning amino acids 1 to 201 of CAML in frame; expressed in transfected cells; host or cells: Saccharomyces cerevisiae AH109
T4 sequence (P49069 1-201): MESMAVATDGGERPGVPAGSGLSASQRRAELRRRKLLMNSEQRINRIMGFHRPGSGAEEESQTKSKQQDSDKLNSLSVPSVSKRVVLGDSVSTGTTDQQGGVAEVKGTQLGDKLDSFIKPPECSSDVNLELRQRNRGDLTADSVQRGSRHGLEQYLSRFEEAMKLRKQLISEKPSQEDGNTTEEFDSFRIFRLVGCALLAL
Excerpt: as §1, §2, §3

U937 cells [4] = assay: Arachidonic acid release assay; type: cell-based, human
Description: (§4) Generation of stable U937 cell lines expressing E3/6.7K U937 human histiocytic lymphoma cells obtained from ATCC (CRL 1593) were maintained in RPMI 1640, 10% FCS, 2 mM L-glutamine, 10 mM HEPES, 100 U/ml penicillin and 100 μg/ml streptomycin in an atmosphere of 5% CO2 and 100% humidity. Cells were transfected with the appropriate construct by using the DMRIE-C cationic lipid reagent available from Life Technologies using the manufacturer's protocol. Transfected cells were maintained in medium containing geneticin G-418 sulphate at a final concentration of 800 μg/ml. Media and supplements were purchased from Life Technologies. Subclones of the transfected cell lines were generated by serial dilution and examined for expression of E3/6.7K by Northern Blotting. The expression of E3/6.7K mRNA was very similar in all the clones examined. All the G-418 resistant cells that survived the selection procedure were pooled and used for the in vitro assays, in order to avoid clonal variations known to arise in U937 cells.
Arachidonic acid release assays. […] After 20 hours of treatment the cells were centrifuged and 100 μl of supernatant out of 500 μl total was mixed with 3 ml scintillation fluid and counted. […] The counts per minute of released [3H] arachidonic acid were expressed as a percentage of the average of total incorporated [3H] arachidonic acid.

calcium ions from the ER = assay: Efflux of calcium ions from the ER; type: cell-based; conditions: in the presence of E3/6.7K
U937 cells [5] = assay: Annexin V-FACS apoptosis assay; type: cell-based, human
Description: as §4
Annexin V-FACS apoptosis assay. Annexin V-FITC (PharMingen) was used to determine the binding of Annexin V to externalized phosphatidyl serine. […] One sample of cells was not stained and used to set up the baseline fluorescence. The cells were examined with a fluorescence-activated cell sorter SACS) on a Beckton Dickson FACS Analyzer.

B1: amino acids 1-212: fragment of human TACI, amino acids 1-212 (protein, UniProt O14836 1-212, looked up, fragment)
chain: MSGLGRSRRGGRSRVDQEERFPQGLWTGVAMRSCPEEQYWDPLLGTCMSCKTICNHQSQRTCAAFCRSLSCRKEQGKFYDHLLRDCISCASICGQHPKQCAYFCENKLRSPVNLPPELRRQRSGEVENNSDNSGRYQGLEHRGSEASPALPGLKLSADQVALVYSTLGLCLCAVLCCFLVAVACFLKKRGDPCSCQPRSRPRQSPAKSSQDH
CAML
  CAML-binding: capable of binding to CAML

B2: 1-233 of human TACI: fragment of human TACI, amino acids 1-233 (protein, UniProt O14836 1-233, looked up, fragment)
chain: MSGLGRSRRGGRSRVDQEERFPQGLWTGVAMRSCPEEQYWDPLLGTCMSCKTICNHQSQRTCAAFCRSLSCRKEQGKFYDHLLRDCISCASICGQHPKQCAYFCENKLRSPVNLPPELRRQRSGEVENNSDNSGRYQGLEHRGSEASPALPGLKLSADQVALVYSTLGLCLCAVLCCFLVAVACFLKKRGDPCSCQPRSRPRQSPAKSSQDHAMEAGSPVSTSPEPVETCSFC
CAML
  CAML-binding: capable of binding to CAML

B3: E3/6.7K: 6.7K protein encoded by the adenovirus E3 region; integral membrane protein localized to the endoplasmic reticulum; expressed from transfected Ad2 cDNA (protein)
chain: MSNSSNSTSLSNFSGIGVGVILTLVILFILILALLCLRVAACCTHVCTYCQLFKRWGQHPR
modifications: Adenovirus, Ad2 E3/6.7K
notes: 6.7K protein encoded by the adenovirus E3 region; integral membrane protein localized to the endoplasmic reticulum; expressed from transfected Ad2 cDNA
Full length CAML [1]; full length human CAML, GAL4 bait/prey
  interaction with CAML: interacts
Full length CAML [1]; pBD-6.7 and pAD-CAML in S. cerevisiae AH109, SD-LTHX or SD-AHLTX
  growth of yeast on interaction-selective media: able to grow on both SD-LTHX or SD-AHLTX
Full length CAML [2]
  interaction with CAML: interacts
[3]; 1-201 residue domain of CAML, GAL4 bait/prey
  interaction with CAML: interacts
[3]; pBD-6.7 and pAD-CAML(201) in S. cerevisiae AH109, SD-LTHX or SD-AHLTX
  growth of yeast on interaction-selective media: able to grow on both SD-LTHX or SD-AHLTX
U937 cells [4]; U937-E3/6.7K cells, TNF-α and cycloheximide (CHX)
  reduction of release of [3H] arachidonic acid compared to U937neor: 60%
U937 cells [4]; U937 cells transfected with E3/6.7K cDNA, stimulated with TNF-α
  decrease of [3H] arachidonic acid release compared with U937 cells transfected with vector alone: 50%
Calcium ions from the ER
  efflux of calcium ions from the ER: reduced
U937 cells [5]; U937-E3/6.7K cells, combination of TNF-α and CHX
  reduction in apoptosis compared to U937neor: 65%
U937 cells [5]; cells expressing E3/6.7K, stimulation with TNF-α
  reduction in percentage of apoptotic cells compared with U937neor: 55%

B4: amino acids 1-168 of human TACI: fragment of human transmembrane activator and CAML interactor (TACI), amino acids 1-168 (protein, UniProt O14836 1-168, looked up, fragment)
chain: MSGLGRSRRGGRSRVDQEERFPQGLWTGVAMRSCPEEQYWDPLLGTCMSCKTICNHQSQRTCAAFCRSLSCRKEQGKFYDHLLRDCISCASICGQHPKQCAYFCENKLRSPVNLPPELRRQRSGEVENNSDNSGRYQGLEHRGSEASPALPGLKLSADQVALVYSTLG
CAML
  CAML-binding: did not occur
